Reference: US20160340421A1

Legend:
[1] = target: Human GDF8 homodimer (mature human Growth and Differentiation Factor-8) (human) (UniProt O14793); assay: SPR, antibody captured, buffer without BSA
[2] = target: hGDF11 homodimer (human) (UniProt O95390); assay: SPR, antibody captured, buffer without BSA
[3] = target: Human GDF8 homodimer (mature human Growth and Differentiation Factor-8) (human) (UniProt O14793); assay: SPR Biacore T100, captured on anti-hFc, 25°C
[4] = target: hGDF11 homodimer (human) (UniProt O95390); assay: SPR Biacore T100, captured on anti-hFc, 25°C
[5] = target: Human GDF8 homodimer (mature human Growth and Differentiation Factor-8) (human) (UniProt O14793); assay: SPR Biacore T100, captured on anti-hFc, 37°C
[6] = target: hGDF11 homodimer (human) (UniProt O95390); assay: SPR Biacore T100, captured on anti-hFc, 37°C
[7] = target: GDF8/TGFβ[48-72] chimera (T48): GDF8.1-47.TGFβ1.49-76.GDF8.73-109 (human GDF8 with human TGFβ-1 sequence); assay: cell-based or functional assay
Target sequence (chain, as listed by the source mutant limits assumed): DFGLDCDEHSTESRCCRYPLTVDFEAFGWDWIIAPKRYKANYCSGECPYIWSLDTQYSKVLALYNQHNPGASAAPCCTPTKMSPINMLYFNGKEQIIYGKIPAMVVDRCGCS

[8] = target: Human GDF8 homodimer (mature human Growth and Differentiation Factor-8) (human) (UniProt O14793); assay: cell-based or functional assay
[9] = target: hGDF11 homodimer (human) (UniProt O95390); assay: cell-based or functional assay
[10] = target: Human GDF8 homodimer (mature human Growth and Differentiation Factor-8) (human) (UniProt O14793); assay: SPR, antibody captured, 25 nM antigen
[11] = target: hGDF11 homodimer (human) (UniProt O95390); assay: SPR, antibody captured, 25 nM antigen
[12] = target: Human GDF8 homodimer (mature human Growth and Differentiation Factor-8) (human) (UniProt O14793); assay: Luminex: hGDF8 beads with 1.25 µg/ml antibody, then Activin RIIB-mFc; MFI of bound Activin RIIB-mFc (n=3)

Sequence of Human GDF8 homodimer (mature human Growth and Differentiation Factor-8) (human) (O14793 267-375): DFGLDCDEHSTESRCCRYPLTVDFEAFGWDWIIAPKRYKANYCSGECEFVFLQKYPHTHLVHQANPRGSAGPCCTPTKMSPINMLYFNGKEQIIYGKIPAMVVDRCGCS
Sequence of hGDF11 homodimer (human) (O95390 299-407 limits assumed): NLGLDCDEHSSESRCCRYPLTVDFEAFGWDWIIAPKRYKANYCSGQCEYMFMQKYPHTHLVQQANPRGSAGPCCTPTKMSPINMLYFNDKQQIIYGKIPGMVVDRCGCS

In the case of “Control I: human anti-GDF8 antibody with the heavy and light chain variable regions of Myo29”, the Kd [1] is reported as 0.002 nM, the T1/2 [1] is reported as 21.7 h and the Kd [2] is reported as 0.001 nM. The T1/2 [2] was 1.75 h, the Kd [3] was 0.0103 nM and the T1/2 [3] was 4.55 h. For the same substance, the Kd [4] was 0.0146 nM, the T1/2 [4] was 3.68 h and the Kd [5] was 0.0244 nM. It also gave a T1/2 [5] of 1.17 h, a Kd [6] of 0.0274 nM and a T1/2 [6] of 0.933 h. For the same substance, the approximate IC50, luciferase bioassay with GDF8/TGFβ[48-72] conditioned medium [7] was 0.402 nM, the IC50, GDF8-inducible luciferase, A204/Smad2 cells, 0.8 nM GDF8 [8] was 0.62 nM and the IC50, luciferase bioassay, 0.5 nM GDF8 [8] was 0.172 nM. For the same substance, the IC50, luciferase bioassay, 1 nM GDF8 [8] was 0.398 nM, the IC50, GDF11-inducible luciferase, A204/Smad2 cells, 0.8 nM GDF11 [9] was 0.94 nM and the IC50, luciferase bioassay, 0.4 nM GDF11 [9] was 0.255 nM. It also gave an IC50, luciferase bioassay, 0.8 nM GDF11 [9] of 0.459 nM, a Kd [10] of 0.05 nM and a T1/2 [10] of 3.18 h. For the same substance, the Kd [11] was 0.08 nM, the T1/2 [11] was 2.27 h and the MFI [12] was 58.
With Negative Control (Table 11) the MFI [12] was 4560.
